Consider seven substances from PMC2867956, “Interdomain Interactions Control Ca^2+-Dependent Potentiation in the Cation Channel TRPV4” (PLoS ONE, 2010).

As a reminder, the IC50 is the concentration needed to halve the response being measured.

Assay [1] has as its target N1-YFP (full-length TRPV4 N terminus). Nature of the assay: FRET or BRET; acceptor photobleaching FRET of CFP- and YFP-fused TRPV4 termini coexpressed in HEK293 cells.
The target in assay [2] is C2-Flag (C-terminal TRPV4 fragment C2) (human). Nature of the assay: AlphaScreen or HTRF; competition: acceptor beads with C2-Flag, donor beads with P2-biotin or C2-biotin, increasing CaM, 100 µM Ca2+ or 1 mM EGTA.
Chain of C2-Flag (C-terminal TRPV4 fragment C2) (human) (Q9HBA0 whole entry, the tested form may be a part): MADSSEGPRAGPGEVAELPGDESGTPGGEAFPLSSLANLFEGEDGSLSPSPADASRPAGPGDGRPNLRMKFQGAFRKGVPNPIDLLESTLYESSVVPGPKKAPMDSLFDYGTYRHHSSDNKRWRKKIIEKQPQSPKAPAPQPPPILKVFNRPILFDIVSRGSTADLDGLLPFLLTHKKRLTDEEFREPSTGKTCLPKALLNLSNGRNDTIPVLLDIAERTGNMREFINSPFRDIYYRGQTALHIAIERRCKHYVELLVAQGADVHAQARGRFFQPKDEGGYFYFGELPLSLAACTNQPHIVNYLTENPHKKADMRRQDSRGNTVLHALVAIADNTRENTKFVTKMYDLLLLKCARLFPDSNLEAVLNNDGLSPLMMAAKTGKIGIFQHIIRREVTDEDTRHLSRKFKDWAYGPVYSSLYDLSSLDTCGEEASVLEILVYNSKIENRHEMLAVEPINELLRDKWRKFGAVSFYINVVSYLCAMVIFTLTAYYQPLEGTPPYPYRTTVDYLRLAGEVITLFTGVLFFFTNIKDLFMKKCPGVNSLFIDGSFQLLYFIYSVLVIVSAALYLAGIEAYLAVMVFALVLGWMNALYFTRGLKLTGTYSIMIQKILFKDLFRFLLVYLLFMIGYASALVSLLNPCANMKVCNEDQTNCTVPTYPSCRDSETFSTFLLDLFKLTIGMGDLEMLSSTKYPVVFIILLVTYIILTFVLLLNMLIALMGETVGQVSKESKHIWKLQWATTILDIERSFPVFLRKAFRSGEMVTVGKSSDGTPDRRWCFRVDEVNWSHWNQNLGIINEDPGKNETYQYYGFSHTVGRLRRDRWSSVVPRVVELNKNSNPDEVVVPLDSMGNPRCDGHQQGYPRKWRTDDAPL
Assay [3] concerns the target C2-GST-biotin (C-terminal TRPV4 fragment C2) (human). Description: AlphaScreen or HTRF; C2-biotin with CaM-Flag or mutants, Ca2+ concentration varied.
Assay [4] addresses YFP-fused C1 fragment (full-length TRPV4 C terminus). Description: FRET acceptor photobleaching in HEK293 cells. The note with it: coexpressed in HEK293 cells; 3 independent experiments; parent: est. 35; read off a plot.

Chain of N1-YFP (full-length TRPV4 N terminus) (Q9HBA0 whole entry, the tested form may be a part): as above
Chain of C2-GST-biotin (C-terminal TRPV4 fragment C2) (human) (Q9HBA0 whole entry, the tested form may be a part): as above
Chain of CFP-fused N1 (full-length TRPV4 N terminus) (domain or fragment) (Q9HBA0 whole entry, the tested form may be a part): as above

With “CFP-fused N1 (full-length TRPV4 N terminus) (domain or fragment)”, the maximal relative donor fluorescence increase after acceptor bleaching in assay [1] is 1.27.
In assay [2], “calmodulin (from UniProt P0DP23 1-149) (natural protein)” registered an IC50 of 0.166 µM.
“CaM34 (CaM mutant Ca2+ binding-deficient in the C lobe), Flag-tagged (from UniProt P0DP23 1-149) (natural protein)” registered an EC50 of Ca2+ for the interaction in assay [3] of 27 µM.
For “CFP-fused N1 (full-length TRPV4 N terminus) KRA”, in assay [4], the response amounted to 17%.
On to “wild type CaM-Flag (from UniProt P0DP23 1-149) (natural protein)”, for which the EC50 of Ca2+ for the interaction in assay [3] worked out at 8.8 µM.
For “CFP-fused N1 (full-length TRPV4 N terminus) WIA”, the response in assay [4] turned out to be 25%.
With “CaM12 (CaM mutant Ca2+ binding-deficient in the N lobe), Flag-tagged (from UniProt P0DP23 1-149) (natural protein)”, the EC50 of Ca2+ for the interaction in assay [3] worked out at 10.7 µM.
